In this assay the target is FITC-labelled type I collagen (UniProt P02453).
UniProt P02453, sequence (P02453 23-1217, chain 1 of 2): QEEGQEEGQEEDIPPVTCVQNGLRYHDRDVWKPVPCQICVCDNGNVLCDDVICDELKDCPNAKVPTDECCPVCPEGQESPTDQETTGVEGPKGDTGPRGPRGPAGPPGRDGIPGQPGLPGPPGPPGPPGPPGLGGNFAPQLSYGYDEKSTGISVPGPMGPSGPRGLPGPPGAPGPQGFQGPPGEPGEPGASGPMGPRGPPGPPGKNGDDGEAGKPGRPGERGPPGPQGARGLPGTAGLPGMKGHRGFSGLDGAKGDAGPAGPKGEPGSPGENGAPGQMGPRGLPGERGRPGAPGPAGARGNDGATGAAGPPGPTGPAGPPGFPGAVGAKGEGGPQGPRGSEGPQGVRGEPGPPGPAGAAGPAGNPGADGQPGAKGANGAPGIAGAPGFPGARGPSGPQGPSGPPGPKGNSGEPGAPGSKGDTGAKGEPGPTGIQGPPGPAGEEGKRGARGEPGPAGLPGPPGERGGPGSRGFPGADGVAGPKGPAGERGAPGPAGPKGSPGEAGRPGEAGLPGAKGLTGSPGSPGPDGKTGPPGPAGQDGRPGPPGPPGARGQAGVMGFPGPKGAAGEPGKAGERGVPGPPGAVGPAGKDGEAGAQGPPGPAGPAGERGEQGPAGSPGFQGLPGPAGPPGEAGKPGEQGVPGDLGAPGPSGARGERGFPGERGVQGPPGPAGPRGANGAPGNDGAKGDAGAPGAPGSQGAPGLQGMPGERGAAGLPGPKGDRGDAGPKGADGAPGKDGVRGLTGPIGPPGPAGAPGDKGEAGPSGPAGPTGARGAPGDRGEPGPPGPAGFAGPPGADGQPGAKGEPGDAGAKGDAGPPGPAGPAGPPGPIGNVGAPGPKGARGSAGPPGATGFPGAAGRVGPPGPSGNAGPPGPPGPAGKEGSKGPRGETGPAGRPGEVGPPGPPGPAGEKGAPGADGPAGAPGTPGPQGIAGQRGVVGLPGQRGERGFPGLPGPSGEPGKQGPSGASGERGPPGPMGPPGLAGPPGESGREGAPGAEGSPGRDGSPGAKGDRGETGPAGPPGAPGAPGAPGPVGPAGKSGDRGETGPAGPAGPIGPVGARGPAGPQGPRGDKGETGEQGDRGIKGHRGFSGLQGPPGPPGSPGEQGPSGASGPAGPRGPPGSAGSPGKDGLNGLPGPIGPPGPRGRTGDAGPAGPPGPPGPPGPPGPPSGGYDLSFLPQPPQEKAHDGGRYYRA
UniProt P02453, sequence (P02465 80-1117, chain 2 of 2, further chain): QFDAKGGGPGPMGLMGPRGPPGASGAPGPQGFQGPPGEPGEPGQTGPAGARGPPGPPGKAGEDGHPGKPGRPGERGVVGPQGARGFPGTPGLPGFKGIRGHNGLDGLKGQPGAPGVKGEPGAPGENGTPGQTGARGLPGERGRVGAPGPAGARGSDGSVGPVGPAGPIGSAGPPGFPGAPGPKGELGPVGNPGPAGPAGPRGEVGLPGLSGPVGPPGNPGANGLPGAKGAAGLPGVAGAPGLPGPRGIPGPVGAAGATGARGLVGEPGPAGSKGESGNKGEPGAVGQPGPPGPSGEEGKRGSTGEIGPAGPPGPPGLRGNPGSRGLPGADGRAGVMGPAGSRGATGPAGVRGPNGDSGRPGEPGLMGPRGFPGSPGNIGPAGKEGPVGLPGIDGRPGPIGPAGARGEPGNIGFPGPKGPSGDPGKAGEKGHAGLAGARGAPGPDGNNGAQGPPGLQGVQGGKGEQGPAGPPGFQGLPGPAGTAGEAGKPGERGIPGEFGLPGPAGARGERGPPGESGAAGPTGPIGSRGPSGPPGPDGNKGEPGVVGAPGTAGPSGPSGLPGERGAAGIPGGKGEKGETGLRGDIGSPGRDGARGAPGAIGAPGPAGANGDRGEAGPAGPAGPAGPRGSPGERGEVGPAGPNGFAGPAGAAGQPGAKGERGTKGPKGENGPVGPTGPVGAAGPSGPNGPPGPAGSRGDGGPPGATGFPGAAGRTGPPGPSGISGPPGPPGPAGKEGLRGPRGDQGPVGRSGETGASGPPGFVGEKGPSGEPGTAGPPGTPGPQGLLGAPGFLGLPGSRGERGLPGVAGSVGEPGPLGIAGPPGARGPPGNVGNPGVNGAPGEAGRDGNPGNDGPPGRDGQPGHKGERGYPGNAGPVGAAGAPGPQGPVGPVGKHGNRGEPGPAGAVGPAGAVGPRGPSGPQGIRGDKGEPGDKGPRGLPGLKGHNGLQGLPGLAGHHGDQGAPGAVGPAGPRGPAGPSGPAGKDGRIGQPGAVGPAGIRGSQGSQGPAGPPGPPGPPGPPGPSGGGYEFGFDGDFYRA

As to “purified collagenase product from C. histolyticum”, the Km of hydrolysis of FITC-labelled type I collagen (Lineweaver-Burk plot; 50 mM Tris-HCl, 0.2 M NaCl, 5 mM CaCl2, pH 7.5, 30 °C) is 0.00189 mM. With “recombinant 62-kDa collagenase from Grimontia hollisae (enzyme)” the figure was 0.00109 mM.

For the origin of these results see PMC7054364.
